US10202593B2, “Evolved sortases and uses thereof” (President and Fellows of Harvard College, priority 2013, dated 2019)

Test: Materials (surface) functionalization of GGG-PEG 96-well plates
Format: biochemical
Details: Alexa Fluor 488-LAETGG or Alexa Fluor 647-LPESGG, 2 hours
Description: FIG. 21A-D show applications of evolved sortases. (A) N- and C-terminal labeling of fibroblast growth factors FGF1 and FGF2. Tandem SUMO-TEV cleavage site-FGF1/2-LPESG-His6 (SEQ ID NO: 27) constructs were treated with eSrtA(4S-9) in the presence of GGG-PEG, then with eSrtA(2A-9) and TEV protease in the presence of Alexa Fluor750-LAETGG (SEQ ID NO: 35) and purified to afford the final conjugates in up to 20% yield (Table 3). The crude reactions were analyzed by SDS-PAGE and scanned for fluorescence at 700 nm. (B) Surface functionalization using eSrtA(2A-9) and eSrtA(4S-9). […] The total fluorescence of the resulting surfaces was measured at 488 nm or 647 nm, then normalized to the fluorescent intensities obtained from the samples containing eSrtA(2A-9)+488-LAETG (SEQ ID NO: 5) or eSrt(4S-9)+647-LPESG (SEQ ID NO: 3). […]
GGG-functionalized substrate was generated by incubating 100 μL of 2 μM biotin-PEG (5K)-GGG in streptavidin coated 96 well microplates (Pierce) for 2 hours at room temperature, and washed three times with TBST buffer (20 mM Tris, 100 mM NaCl, pH 7.5 with 0.05% Tween 20). […] Total fluorescent intensities were measured at 488 nm and 647 nm using a Biotek Synergy NEO HTS Multi Mode microplate reader. […]

B1: eSrtA(2A-9): P94R, S102C, A104H, E105D, K138P, K152I, N160K, K162H, T164N, D165A, K173E, I182V, K190E, T196S (protein)
chain: QAKPQIPKDKSKVAGYIEIPDADIKEPVYPGPATREQLNRGVCFHDENESLDDQNISIAGHTFIDRPNYQFTNLKAAKPGSMVYFKVGNETRIYKMTSIRKVHPNAVEVLDEQEGKDKQLTLVTCDDYNEETGVWESRKIFVATEVK
  modification of GGG-PEG-functionalized surfaces: significant modification only on its cognate substrate

B2: eSrtA(4S-9): P94R, N98D, S102C, A104V, A118T, F122A, K134R, F144L, D160N, D165A, I182V, E189F, K190E, K196T (protein)
chain: QAKPQIPKDKSKVAGYIEIPDADIKEPVYPGPATREQLDRGVCFVEENESLDDQNISITGHTAIDRPNYQFTNLRAAKKGSMVYLKVGNETRKYKMTSIRNVKPTAVEVLDEQKGKDKQLTLVTCDDYNFETGVWETRKIFVATEVK
  modification of GGG-PEG-functionalized surfaces: significant modification only on its cognate substrate
